This is an account of results in PMC12136450 (PLOS Biology, 2025).

For assay [1], the target named is T1, His-tagged Cpe1tox^C362A (catalytically inactive toxin domain) (Escherichia coli strain ATCC 11775, UniProt P0DXX9 338-479, C362A).
T1 sequence: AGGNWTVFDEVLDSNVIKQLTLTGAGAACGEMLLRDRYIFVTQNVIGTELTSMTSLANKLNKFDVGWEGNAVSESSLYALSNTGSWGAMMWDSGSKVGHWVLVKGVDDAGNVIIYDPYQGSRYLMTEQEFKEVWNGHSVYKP
The assay can be described thus: BLI. Background: BLI is a label-free optical method that tracks binding on a fibre tip over time.

Assay [2] concerns the target T2, His-tagged Cpe1tox^C362A (catalytically inactive toxin domain) (Escherichia coli strain ATCC 11775, UniProt P0DXX9 338-479, C362A).
T2 construct: not shown: His6, N-terminal, kept
T2 sequence: T1 sequence
Nature of the assay: BLI; […]; 30 °C; PBS with 0.2% BSA, 0.02% Tween-20; association 150 s, dissociation 300 s; 1:1 global fit. The note with it: both partners purified.

Assay [3] addresses ATPase domain of ParE, strep-tagged (E. coli). The assay can be described thus: BLI; […]; 30 °C; PBS with 0.2% BSA, 0.02% Tween-20; association and dissociation 120 s; […].

The term koff denotes a measure of how fast the partners let go of each other. For orientation: Kd means the equilibrium constant for the complex coming apart. Read a high Kd as lower affinity.

B1: ATPase domain of ParE, strep-tagged (domain or fragment)
chain: MTQTYNADAIEVLTGLEPVRRRPGMYTDTTRPNHLGQEVIDNSVDEALAGHAKRVDVILHADQSLEVIDDGRGMPVDIHPEEGVPAVELILCRLHAGGKFSNKNYQFSGGLHGVGISVVNALSKRVEVNVRRDGQVYNIAFENGEKVQDLQVVGTCGKRNTGTSVHFWPDETFFDSPRFSVSRLTHVLKAKAVLCPGVEITFKDEINNTEQRWCYQDGLNDYLAEAVNGLPTLPEKPFIGNFAGDTEAVDWALLWLPEGGELLTESYVNLIPTMQGGTHVNGLRQGLLDAMREFCEYRNILPRGVKLSAEDIWDRCAYVLSVKMQDPQFAGQTKERLSSRQCAAFVSGVVKDAFILWLNQNVQAAELLAEMAISSAQRRMRAAKKVVRKK
modifications: C-terminal strep tag left out. Limits are not given; 1-390 is taken from the 43-kDa ATPase domain in PDB 1S16 (390 aa), which the paper uses for ParE. The K-12 strain is inferred.
On to B1, for which the koff in assay [1] came out at 0.47 s⁻¹.

B2: strep-tagged Cpi1 (wild type) (natural protein)
chain: MGIVFTNHNIDLLSVEFDEITKNCNYTFSVDGETAIFTARISIIRNIKGIKYSEELDKFIMSIMPLQPKVSKILGGVTWDCICGKEVGFPVRLIGK
notes: source: E. coli BL21 (DE3), pETDuet-1, purified (streptavidin resin, gel filtration)
In the case of B2, the koff in assay [1] worked out at 0.00303 s⁻¹. In assay [2], this molecule registered a Kd of 8.58 nM.

B3: His-tagged Cpe1tox^C362A (catalytically inactive toxin domain) (domain or fragment)
chain: T1 sequence
B3 gave a Kd in assay [3] of 343 nM.
